Measured values from patent publication US20240417459A1 (published 2024).

Target: human ILT4-HIS
Assay: BLI (Octet)

Row | Kd | Binder
1 | 0.282 nM | 9H9-7A3 LH (bispecific antibody) heavy: not shown light: DIQMTQSPSTLSASVGDRVTITCRASQSISGWLAWYQQKPGKAPKLLIYKASSLESGVPSRFSGSGSGTEFTLTISSLQPDDFATYYCQQYYGSSRTFGQGTNVEIKRTVAAPSVFIFPPSDEQLKSGTASVVCLLNNFYPREAKVQWKVDNALQSGNSQESVTEQDSKDSTYSLSSTLTLSKADYEKHKVYACEVTHQGLSSPVTKSFNRGEC
2 | 0.308 nM | 9H9-7A3 HL (bispecific antibody) heavy: not shown light: DIQMTQSPSTLSASVGDRVTITCRASQSISGWLAWYQQKPGKAPKLLIYKASSLESGVPSRFSGSGSGTEFTLTISSLQPDDFATYYCQQYYGSSRTFGQGTNVEIKRTVAAPSVFIFPPSDEQLKSGTASVVCLLNNFYPREAKVQWKVDNALQSGNSQESVTEQDSKDSTYSLSSTLTLSKADYEKHKVYACEVTHQGLSSPVTKSFNRGEC
3 | 0.056 nM | 9H9-7B1 LH (bispecific antibody) heavy: not shown light: DIQMTQSPSTLSASVGDRVTITCRASQSISGWLAWYQQKPGKAPKLLIYKASSLESGVPSRFSGSGSGTEFTLTISSLQPDDFATYYCQQYYGSSRTFGQGTNVEIKRTVAAPSVFIFPPSDEQLKSGTASVVCLLNNFYPREAKVQWKVDNALQSGNSQESVTEQDSKDSTYSLSSTLTLSKADYEKHKVYACEVTHQGLSSPVTKSFNRGEC
4 | 0.139 nM | 9H9-7B1 HL (bispecific antibody) heavy: not shown light: DIQMTQSPSTLSASVGDRVTITCRASQSISGWLAWYQQKPGKAPKLLIYKASSLESGVPSRFSGSGSGTEFTLTISSLQPDDFATYYCQQYYGSSRTFGQGTNVEIKRTVAAPSVFIFPPSDEQLKSGTASVVCLLNNFYPREAKVQWKVDNALQSGNSQESVTEQDSKDSTYSLSSTLTLSKADYEKHKVYACEVTHQGLSSPVTKSFNRGEC
